These results are taken from paper PMC10287930, “RecF protein targeting to post-replication (daughter strand) gaps II: RecF interaction with replisomes” (Nucleic Acids Research, 2023).

First the molecules themselves.
B1: RecQ (Gal4 fusion for yeast two-hybrid) (natural protein)
chain: not shown
notes: RecQ helicase, E. coli; open reading frame (start to stop codons) of recQ; also called pGAD-RecQ; pGBD-RecQ; source: yeast two-hybrid fusion (yeast CFy7; pEAW1100 pGAD-RecQ, pEAW1105 pGBD-RecQ)
B2: RecO (Gal4 fusion for yeast two-hybrid) (natural protein, E. coli, UniProt P0A7H3 1-242, looked up)
chain: MEGWQRAFVLHSRPWSETSLMLDVFTEESGRVRLVAKGARSKRSTLKGALQPFTPLLLRFGGRGEVKTLRSAEAVSLALPLSGITLYSGLYINELLSRVLEYETRFSELFFDYLHCIQSLAGVTGTPEPALRRFELALLGHLGYGVNFTHCAGSGEPVDDTMTYRYREEKGFIASVVIDNKTFTGRQLKALNAREFPDADTLRAAKRFTRMALKPYLGGKPLKSRELFRQFMPKRTVKTHYE
notes: RecO, E. coli; open reading frame (start to stop codons) of recO; also called pGAD-RecO; pGBD-RecO; source: yeast two-hybrid fusion (yeast CFy7; pEAW1258 pGAD-RecO, pEAW1259 pGBD-RecO)
B3: TopB (Gal4 fusion for yeast two-hybrid) (natural protein, E. coli, UniProt P14294 1-653, looked up)
chain: MRLFIAEKPSLARAIADVLPKPHRKGDGFIECGNGQVVTWCIGHLLEQAQPDAYDSRYARWNLADLPIVPEKWQLQPRPSVTKQLNVIKRFLHEASEIVHAGDPDREGQLLVDEVLDYLQLAPEKRQQVQRCLINDLNPQAVERAIDRLRSNSEFVPLCVSALARARADWLYGINMTRAYTILGRNAGYQGVLSVGRVQTPVLGLVVRRDEEIENFVAKDFFEVKAHIVTPADERFTAIWQPSEACEPYQDEEGRLLHRPLAEHVVNRISGQPAIVTSYNDKRESESAPLPFSLSALQIEAAKRFGLSAQNVLDICQKLYETHKLITYPRSDCRYLPEEHFAGRHAVMNAISVHAPDLLPQPVVDPDIRNRCWDDKKVDAHHAIIPTARSSAINLTENEAKVYNLIARQYLMQFCPDAVFRKCVIELDIAKGKFVAKARFLAEAGWRTLLGSKERDEENDGTPLPVVAKGDELLCEKGEVVERQTQPPRHFTDATLLSAMTGIARFVQDKDLKKILRATDGLGTEATRAGIIELLFKRGFLTKKGRYIHSTDAGKALFHSLPEMATRPDMTAHWESVLTQISEKQCRYQDFMQPLVGTLYQLIDQAKRTPVRQFRGIVAPGSGGSADKKKAAPRKRSAKKSPPADEVGSGAIA
notes: TopB (DNA topoisomerase III), E. coli; open reading frame (start to stop codons) of topB; also called pGAD-TopB; pGBD-TopB; source: yeast two-hybrid fusion (yeast CFy7; pEAW1251 pGAD-TopB, pEAW1252 pGBD-TopB)
B4: RecR (Gal4 fusion for yeast two-hybrid) (natural protein, E. coli, UniProt P0A7H6 1-201, looked up)
chain: MQTSPLLTQLMEALRCLPGVGPKSAQRMAFTLLQRDRSGGMRLAQALTRAMSEIGHCADCRTFTEQEVCNICSNPRRQENGQICVVESPADIYAIEQTGQFSGRYFVLMGHLSPLDGIGPDDIGLDRLEQRLAEEKITEVILATNPTVEGEATANYIAELCAQYDVEASRIAHGVPVGGELEMVDGTTLSHSLAGRHKIRF
notes: RecR, E. coli; open reading frame (start to stop codons) of recR; Stood as AD fusion and as BD fusion in turn; also called pGAD-RecR; pGBD-RecR; source: yeast two-hybrid fusion (yeast CFy7; pEAW1247 pGAD-RecR, pEAW1248 pGBD-RecR)
B5: RadD (Gal4 fusion for yeast two-hybrid) (natural protein, E. coli, UniProt P33919 1-586, looked up)
chain: MIFTLRPYQQEAVDATLNHFRRHKTPAVIVLPTGAGKSLVIAELARLARGRVLVLAHVKELVAQNHAKYQALGLEADIFAAGLKRKESHGKVVFGSVQSVARNLDAFQGEFSLLIVDECHRIGDDEESQYQQILTHLTKVNPHLRLLGLTATPFRLGKGWIYQFHYHGMVRGDEKALFRDCIYELPLRYMIKHGYLTPPERLDMPVVQYDFSRLQAQSNGLFSEADLNRELKKQQRITPHIISQIMEFAATRKGVMIFAATVEHAKEIVGLLPAEDAALITGDTPGAERDVLIENFKAQRFRYLVNVAVLTTGFDAPHVDLIAILRPTESVSLYQQIVGRGLRLAPGKTDCLILDYAGNPHDLYAPEVGTPKGKSDNVPVQVFCPACGFANTFWGKTTADGTLIEHFGRRCQGWFEDDDGHREQCDFRFRFKNCPQCNAENDIAARRCRECDTVLVDPDDMLKAALRLKDALVLRCSGMSLQHGHDEKGEWLKITYYDEDGADVSERFRLQTPAQRTAFEQLFIRPHTRTPGIPLRWITAADILAQQALLRHPDFVVARMKGQYWQVREKVFDYEGRFRLAHELRG
notes: RadD (YejH), E. coli; also called YejH; pGAD-YejH; source: yeast two-hybrid fusion (yeast CFy7)
B6: RecF (Gal4 fusion for yeast two-hybrid) (natural protein, E. coli, UniProt P0A7H0 1-357, looked up)
chain: MSLTRLLIRDFRNIETADLALSPGFNFLVGANGSGKTSVLEAIYTLGHGRAFRSLQIGRVIRHEQEAFVLHGRLQGEERETAIGLTKDKQGDSKVRIDGTDGHKVAELAHLMPMQLITPEGFTLLNGGPKYRRAFLDWGCFHNEPGFFTAWSNLKRLLKQRNAALRQVTRYEQLRPWDKELIPLAEQISTWRAEYSAGIAADMADTCKQFLPEFSLTFSFQRGWEKETEYAEVLERNFERDRQLTYTAHGPHKADLRIRADGAPVEDTLSRGQLKLLMCALRLAQGEFLTRESGRRCLYLIDDFASELDDERRGLLASRLKATQSQVFVSAISAEHVIDMSDENSKMFTVEKGKITD
notes: RecF, E. coli; open reading frame (start to stop codons) of recF cloned in frame into pGAD-C3 and pGBD-C3; Stood as AD fusion and as BD fusion in turn; one molecule for both; source: yeast two-hybrid fusion (yeast CFy7; pEAW1241 pGAD-RecF, pEAW1242 pGBD-RecF)

What all share (assay): two-hybrid; yeast CFy7; RecF fused to Gal4 AD (pGAD-C3) or BD (pGBD-C3) and the partner to the other domain; β-galactosidase activity of freeze/thaw-broken cells in Z buffer; 4 or 5 biological replicates; negative controls (empty C3) 0.21 (AD_RecF) and 0.27 units (BD_RecF)
The target in series [1] is B6. Conditions: partners not purified.
Series [2] deals with the molecule itself.
Series [3] concerns the target B4. Conditions: partners not purified.
The target of series [4] is T1, DnaN β-clamp (Gal4 fusion for yeast two-hybrid) (E. coli, UniProt P0A988 1-366).
T1 construct: DnaN (β-clamp of DNA polymerase III), E. coli; open reading frame (start to stop codons) of dnaN; also called pGBD-DnaN; source: yeast two-hybrid fusion (yeast CFy7; pEAW1101 pGAD-DnaN, pEAW1104 pGBD-DnaN)
T1 sequence (P0A988 whole entry, the tested form may be a part): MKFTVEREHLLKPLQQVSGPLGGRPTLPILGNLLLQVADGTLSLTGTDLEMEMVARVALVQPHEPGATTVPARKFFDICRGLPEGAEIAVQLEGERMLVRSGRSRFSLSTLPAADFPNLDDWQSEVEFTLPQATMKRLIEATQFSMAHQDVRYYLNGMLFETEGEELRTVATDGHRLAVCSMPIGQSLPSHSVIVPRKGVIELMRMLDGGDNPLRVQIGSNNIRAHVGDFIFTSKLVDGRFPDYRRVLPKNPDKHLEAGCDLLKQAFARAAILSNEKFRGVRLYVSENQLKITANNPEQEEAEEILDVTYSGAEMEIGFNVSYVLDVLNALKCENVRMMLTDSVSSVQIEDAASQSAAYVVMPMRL
Conditions: partners not purified.

In series [1], B1 gave a β-galactosidase activity of around 0.5 units.
For B2, the β-galactosidase activity in series [1] is around 0.5 units.
Still for that read-out and setting: for B3 the value was around 0.5 units; for B4, 1.63 units.
Take B5: the β-galactosidase activity in series [1] was around 0.5 units.
With B6, the β-galactosidase activity turned out to be 0.655 units in series [2], 1.14 units in series [3] and 1.05 units in series [4].
